Measured values as given in the supplement of paper PMC12636428.

The sequences below were run on Saccharomyces cerevisiae (assay: transcriptional activation domain activity (GFP:mCherry ratio, weighted mean of sorted bins, harmonized to initial dataset scale) (arbitrary fluorescence ratio units); higher = stronger transcriptional activation). Details: beta-estradiol 1 µM; induction time 4 h.
How it was run: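 Yeast diploids with a GFP reporter received barcoded protein tiles, fused to an estradiol-inducible synthetic transcription factor, at the URA3 locus. Cultures were diluted 1:5 into SC holding 1 uM beta-estradiol, incubated 4 hours at 30 °C, sorted into 8 bins on GFP:mCherry ratio, and sequenced for barcodes, with tiles under 50 reads discarded. Activation activity values come from the read-weighted mean of bin median fluorescence, averaged across barcodes and linearly placed on the initial dataset scale.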
“NHWVFGAFSECFIPGVFLSLHPLTFFLDWTIGFVSDVYTFDAHDPSILELLIF” was tested, and the “transcriptional activation domain activity” value was 47000. With “NIAQNMNQFRRQQVVYSPDTRKYSLLIREGRVGYPGVACMEIESTDPSLVVDK” the “transcriptional activation domain activity” value was 35000. For “NIDPAAIDDKWLSEFINNSDPKSTFKINFNHFNDIGFIYSPPSSRSSIPNKSP”, the “transcriptional activation domain activity” value was 101000. “NIFMLVFWSLALIYWSMFVIIPSIFNYFSPYHYSRWKVVLVNVGTFVWNLATC” was tested, and the “transcriptional activation domain activity” value was 61300. For “NIFVLHWLPSLSIASLFHTSSSSSPLLAQFFALFRSFFLSIFLFSIVYILLLF”, the “transcriptional activation domain activity” value was 72200. “NIHLVNMAQVVVIFFHRLLYGIIPLFEITTCAFFPVLVSLWHLAYILFYVVMF” was tested, and the “transcriptional activation domain activity” value was 69100. “NIIALFLVTNQLTTCSVLPLCMGLFKVFDGFVSEGAVLFGSIFAFFSVLVHGY” was tested, and the “transcriptional activation domain activity” value was 61300. In the case of “NIKTFLYTCITHIYINFILCLCACITHYQVYYHYYVNIFTFIFVWLCSFFLFL”, the “transcriptional activation domain activity” value is reported as 45200. In the case of “NILFHKLFYAYENVLVIISLIYKKKPLGRLQNTRKCSSINVLCNYILEYGRKY”, the “transcriptional activation domain activity” value is reported as 42100. “NILKLPSMVDGSQHCDISKFIVAAAHKIVTPDVSPRGWVLLKLLRSYIELDMY” was tested, and the “transcriptional activation domain activity” value was 29100. “NILRPSLGCILFILIRYVSIIVMVVSNYGVLATSFTVEVCNRYYLVAPVFKVL” was tested, and the “transcriptional activation domain activity” value was 46800. With “NILVRELQWCILCIRYTALGSLDHIRRLMTEIPAHHGLVRFLQRWVENWLEEQ” the “transcriptional activation domain activity” value was 37400. For “NIPIESSWHLFTNYVGLDIKQIVLLGKSLHYFNPGFLLHVNLFNWLWPKIVQL”, the “transcriptional activation domain activity” value was 63300. For “NIQSFDAIYFAALQVIIVSSANGWSPLMYQMMDSEFFVSCVFFIICIVVLNFW”, the “transcriptional activation domain activity” value was 61500. In the case of “NISTSVYVLLVCFHPLFLLLLLLLLLLLLLYRFVFAFFFISFFFFFLLLLLLL”, the “transcriptional activation domain activity” value is reported as 25000. For “NITKILVMKFFTIDFTFTIMYITGLLITFLYYLVGYFQMNVKLLGSDRAYFAF”, the “transcriptional activation domain activity” value was 35700. In the case of “NITKVAERGERLDSLQDKTDNLAVSAQGFRRGANRVRKVSSVVPFIQHSAHKL”, the “transcriptional activation domain activity” value is reported as 22000. With “NKDGNGDGGEGKDKDEENRSGNRDGKRERGRKEDRERVAGSSGGGAKGLKRKR” the “transcriptional activation domain activity” value was 42600. “NKEKMAAFGSFVTEDQEKMEVSFNIFNEITIQDLNFLQFSSIPKLWENKTLEP” was tested, and the “transcriptional activation domain activity” value was 79600. In the case of “NKHVFLILIRSTLCNNWLIATIWVVEIRFCLDLLQTAFPLIFFRFLTWLFFFQ”, the “transcriptional activation domain activity” value is reported as 79900. In the case of “NKKRETRKGESTKSNDEEEEEEEDDDDEKKQGQKKQSNGQSKKSNGSSKKEED”, the “transcriptional activation domain activity” value is reported as 48700. With “NKMKVHINKTNYELDSKEAVMAVLGTHRVEVSVLCLLYLVLRRHKKILDFASS” the “transcriptional activation domain activity” value was 48200. “NKVLRWALDSHIKKWSLDHLRTIAHLIQVVELHHFWSEKENAVALIRVIFKSL” was tested, and the “transcriptional activation domain activity” value was 59700. In the case of “NKWLNVIQKFLKELDGRDKLMKTIQYFIKILLHYKMARAKHWSSLTSHLSMTR”, the “transcriptional activation domain activity” value is reported as 66400. For “NLCELIYLDRLCGCCLFSMRSVVFIDLLSTLIQPVTVVYIVYLIYLVAANGAT”, the “transcriptional activation domain activity” value was 28000. For “NLCLLIAASLISIISLVNLLDFFLTWFGQFITIENLTLELILGYILYPYAWLL”, the “transcriptional activation domain activity” value was 40000. In the case of “NLCMQLLVAPTRDEIDAAHRRKIWLDVGIQSWRNLTNIMPSRMWIWIILLLSS”, the “transcriptional activation domain activity” value is reported as 34900. With “NLDFDFALPQTATAPDAKTVLPIPELDDAVVESFFSSSTDSTPMFEYENLEDN” the “transcriptional activation domain activity” value was 91700. “NLDFFDFENSFGDLWNMDEFYGDVAWDLSSDPPLDPLFIGELYSASGQYGDLQ” was tested, and the “transcriptional activation domain activity” value was 159000. For “NLFGWVRYAGVSVDHLKVHIVGAELWNRYKYAAGIWGYRALPIIALMASLIAC”, the “transcriptional activation domain activity” value was 54200. In the case of “NLHNASTSSFNNEAFWKPLDSAIDHHSGDTNPNSNMNTTPNGNLSLDWLNLNL”, the “transcriptional activation domain activity” value is reported as 84600. In the case of “NLISLPLLKLCSEFAHVKWYEVLSHIVCFGFNGPTKPRSNNLVSLNLQCEHYK”, the “transcriptional activation domain activity” value is reported as 48400. In the case of “NLLARRPFFVFWFMGQIHRSLTLFHCDPTLLVALDVCKSLIPAINYLTLLWPC”, the “transcriptional activation domain activity” value is reported as 70900. “NLLDFRKILVNVVCILVVDVVLLMSMLIGLLRYSHRNSTGLWHLLYQQCIIWL” was tested, and the “transcriptional activation domain activity” value was 45000. In the case of “NLLLFPGISFKTQLLYAIVFCTRYLDLFIRFVSIYNTLMKIFFIGSSFYILYL”, the “transcriptional activation domain activity” value is reported as 67300. For “NLLMRPRYPPNQFISKISLRLILTDLPYMIFVFSGIFIMLGLFYPIFYLQLYA”, the “transcriptional activation domain activity” value was 50400. For “NLLQHIIPPFFINHHHHYYSPFHTSYTFFFSTFVYALFFYIIMYLSIFISLLL”, the “transcriptional activation domain activity” value was 62200. With “NLLSKELLMPAVSELNEYLDLFKNNFLPHFPIIHPSLLDLDLDSLQRYTNEDG” the “transcriptional activation domain activity” value was 48900. “NLLYQLGVFVARSSTPFIRLHNLYLPSCLQILNLLLLVSQSLYWWIPSVYLVF” was tested, and the “transcriptional activation domain activity” value was 76500. For “NLMGSQARSNSQTPTASTIYEEAESQSSYLDDMFRTSQGGRPVTQNSISSIGQ”, the “transcriptional activation domain activity” value was 56100. “NLMIIVLVVSNLRLMIENYRKYGVLICIQCHDYRQQDILYGLILYLLVPCHLF” was tested, and the “transcriptional activation domain activity” value was 39400. With “NLMLQVVSPRIWFPSMQLIWGVLTFWWVAMPCRRIFITHILDHGIQIYAIRFF” the “transcriptional activation domain activity” value was 61400. With “NLMVIVLFVGNLRLVIENIQKYGVLICIRCHDVRESDLILGLSLYFLIPCHLL” the “transcriptional activation domain activity” value was 67300. In the case of “NLNFMPINNNYNNSGSNINNNDNVKLPSNFKNYYDPPMSSLDISMDVPDIFGS”, the “transcriptional activation domain activity” value is reported as 94300. In the case of “NLNSLNQSEEEGHIGRWPPLGYEAVSAEQKSAVQLRESQAGASISNNMNFKAN”, the “transcriptional activation domain activity” value is reported as 48200. “NLPSLIGIQLLSSMGEYVMLWLIFVGTVIYYAGWVTLVIDGFCRFLNIRCLVI” was tested, and the “transcriptional activation domain activity” value was 56900. In the case of “NLQKIISYLLPAGSWSEDWPIILNVFFGCPLPLSSFLMVIICCFTDLFCCLTL”, the “transcriptional activation domain activity” value is reported as 47100. In the case of “NLRLMIVNFRKYGVLICIRCHDYRRQDVVYGLLLYLLVPCHLFVAYLIELAAA”, the “transcriptional activation domain activity” value is reported as 47800. For “NLRVIELRFSLRFYRDVVFCRKLLRKHEVFVTIIKLLLCLLTLDIEGLKIKVG”, the “transcriptional activation domain activity” value was 46500. “NLSLQEIVGILLRANAFRPMCKNCEHLRDKVGAHIVDCACFEYWLQLGLFIAP” was tested, and the “transcriptional activation domain activity” value was 47000. For “NLSPLVLPLWVQLNIYFGIVFLWILAPLVFYYNVWNAQSFPFLSNSIFQLLPN”, the “transcriptional activation domain activity” value was 64600. “NLVRCYYYYGYFGLQSCMVHVFLWFMWWIFLLSSRPLQSTPLSIIWRIILYQA” was tested, and the “transcriptional activation domain activity” value was 29700. “NLYGNDEEVLFYEDNYNPKMQWSLQDNSAAINNEDARAIFNNEFDSDDDDISD” was tested, and the “transcriptional activation domain activity” value was 86600. In the case of “NMDQLDSVHNLNDDDLQQLLEDLGNIDHSDEKLWKEITDQAMWLGNTMDPTAA”, the “transcriptional activation domain activity” value is reported as 149000. With “NMGEQQKFTSPQHIVHKAKFLSNAADSEYSILSNIIYQDTLSNKIPIDILYSN” the “transcriptional activation domain activity” value was 76900. In the case of “NMMLYLLKGLPALSMSDPASITRFIKLVDELLYYAYEAERRSPLPTSHPNLVR”, the “transcriptional activation domain activity” value is reported as 65700. In the case of “NMSPNNDDNSIDTASTNTTNRKKNIDENIKNNNDIINDIIFNTNLANNLSNYN”, the “transcriptional activation domain activity” value is reported as 51000. In the case of “NNCVGYFNYCHFIRLIVYANITTIYIFVLLCCRAHQIIFIQSASLEVGFLCVN”, the “transcriptional activation domain activity” value is reported as 66500. In the case of “NNETETATKARRKKQAPKAAVEGSEDYESETATKAVAKKETKKKPIQKEVLVP”, the “transcriptional activation domain activity” value is reported as under 6570. With “NNGKGQGKRRASSSALAAEKMVEKEAWLRSPKAVCTLSIAVMRSALHLMNAHL” the “transcriptional activation domain activity” value was 67700. For “NNIISNRKQASKEKRKIPRHIQTIDEKLINDSNYLAFLKFDDLENEKFHSSAS”, the “transcriptional activation domain activity” value was 56600.
